Experiments:
[1] = substrate: Cc1ccccc1C1=C2C=CC(=N)C=C2[Si](C)(C)c2cc(NC(=O)[C@H](CC(=O)O)NC(=O)[C@@H](NC(=O)[C@H](CCC(=O)O)NC(=O)[C@H](CC(=O)O)NC(=O)OCc3ccccc3)C(C)C)ccc21; experiment: Activity of caspase3 after 10 hrs by FRET assay
[2] = substrate: Cc1ccccc1C1=C2C=CC(=N)C=C2[Si](C)(C)c2cc(NC(=O)[C@H](CC(=O)O)NC(=O)[C@@H](NC(=O)[C@H](CCC(=O)O)NC(=O)[C@H](CC(=O)O)NC(=O)OCc3ccccc3)C(C)C)ccc21; experiment: Ratio of Kcat to Km for caspase3 by FRET assay

B1: Caspase-3 (Homo sapiens), P42574 (protein)
chain: MENTENSVDSKSIKNLEPKIIHGSESMDSGISLDNSYKMDYPEMGLCIIINNKNFHKSTGMTSRSGTDVDAANLRETFRNLKYEVRNKNDLTREEIVELMRDVSKEDHSKRSSFVCVLLSHGEEGIIFGTNGPVDLKKITNFFRGDRCRSLTGKPKLFIIQACRGTELDCGIETDSGVDDDMACHKIPVEADFLYAYSTAPGYYSWRNSKDGSWFIQSLCAMLKQYADKLEFMHILTRVNRKVATEFESFSFDATFHAKKQIPCIVSMLTKELYFYH
Km [1]: 1.2 µM | Vmax [1]: 6.8 ×10⁻⁸ M/s | kcat/Km [2]: 3.1 ×10⁶ /M/s

— ChEMBL document CHEMBL2029331, “Red fluorescent scaffold for highly sensitive protease activity probes” (Bioorg Med Chem Lett, 2012)
